T1: KGF (hKGF) (Homo sapiens, UniProt P21781 P21781:32-194)
T1 sequence: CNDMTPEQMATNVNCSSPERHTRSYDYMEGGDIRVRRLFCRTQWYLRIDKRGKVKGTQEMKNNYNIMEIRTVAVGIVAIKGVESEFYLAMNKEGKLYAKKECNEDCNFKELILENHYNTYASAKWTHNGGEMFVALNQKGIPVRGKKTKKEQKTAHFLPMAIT

B1: 22F (ssRNA)
RNA: GGGAGGACGAUGCGGCCUGAAGUACAGGCUCUAAACUCCAAGCGCGACCGUCCGCCAGACGACUCGCCCGA
modifications: 2'-F pyrimidines
B2: 41F (ssRNA)
RNA: GGGAGGACGAUGCGGGGACUUUGACAGGCAUUGAUUUCGACCUGUUCCCCGUGGCCAGACGACUCGCCCGA
modifications: 2'-F pyrimidines
B3: 49F (ssRNA)
RNA: GGGAGGACGAUGCGGGGACUUUGACAGGCAUUGAUUUCGACGUGUUCCCCGUGGCCAGACGACUCGCCCGA
modifications: 2'-F pyrimidines
B4: 29F (ssRNA)
RNA: GGGAGGACGAUGCGGGGACUUCAACUAAGUCCUCAUUUGCCUCGCUCCUCGUGCCCAGACGACUCGCCCGA
modifications: 2'-F pyrimidines
B5: 58F (ssRNA)
RNA: GGGAGGACGAUGCGGGAACUAAUGGCCGUGAUUAACCAAUGCAGGCUUCCUGCGCCAGACGACUCGCCCGA
modifications: 2'-F pyrimidines
B6: 45F (ssRNA)
RNA: GGGAGGACGAUGCGGGUCGUAUUCAUCUCCUUGUUCUGUUUCGUUGCACCUGGCCCAGACGACUCGCCCGA
modifications: 2'-F pyrimidines
B7: 28N (ssRNA)
RNA: GGGAGGACGAUGCGGUUGCUCUACAAUGACGCGGUGACUCCGCAGUUCUUGGACACAGACGACUCGCCCGA
modifications: 2'-NH2 pyrimidines
B8: 3F (ssRNA)
RNA: GGGAGGACGAUGCGGAUCGUAAUCGCCACUACUACUUUCCGAACCCGCACGUGGCCAGACGACUCGCCCGA
modifications: 2'-F pyrimidines
B9: 71N (ssRNA)
RNA: GGGAGGACGAUGCGGAAACGGCGUGGCAAAAGUGAGGGGGUAGGAUGUACCAUGGGUCAGACGACUCGCCCGA
modifications: 2'-NH2 pyrimidines
B10: 54F (ssRNA)
RNA: GGGAGGACGAUGCGGAAGAUCUCCCAACUGCUGUGGCUAAUAAUUCUCUCCGCGUCCCCAGACGACUCGCCCGA
modifications: 2'-F pyrimidines
B11: 25N (ssRNA)
RNA: GGGAGGACGAUGCGGGAGGGAAUGAGGAAACAACUAGCAGAUAACCGAGCUGGCCAGACGACUCGCCCGA
modifications: 2'-NH2 pyrimidines
B12: 2F (ssRNA)
RNA: GGGAGGACGAUGCGGGCAUUCGUCAAUACCUUGUUUUAUUCCUUUUCUAGCGGCCCAGACGACUCGCCCGA
modifications: 2'-F pyrimidines
B13: 57F (ssRNA)
RNA: GGGAGGACGAUGCGGUGACUAUCUGGCUCGAUCCAAUCACCCGAGCCCACCGCGCCAGACGACUCGCCCGA
modifications: 2'-F pyrimidines
B14: 5F (ssRNA)
RNA: GGGAGGACGAUGCGGCGUCCCGAGUCACGCUGUCCUGAUAACCUUCUCUGUGCCCAGACGACUCGCCCGA
modifications: 2'-F pyrimidines
B15: 35F (ssRNA)
RNA: GGGAGGACGAUGCGGCGAAAUUAGCUUCUUAUGACUCACGUUUCCUUGCCGCCCCAGACGACUCGCCCGA
modifications: 2'-F pyrimidines
B16: 72N (ssRNA)
RNA: GGGAGGACGAUGCGGGAGGGGAAAAUGAGACCGACAGAUUGACGGAAGUACUGGGCAGACGACUCGCCCGA
modifications: 2'-NH2 pyrimidines
B17: 11F (ssRNA)
RNA: GGGAGGACGAUGCGGUGAUGGCGACCAGUCAAACCGGUGCUUUUACUCCCCCGCCAGACGACUCGCCCGA
modifications: 2'-F pyrimidines
B18: 55N (ssRNA)
RNA: GGGAGGACGAUGCGGACACACAAGUGAAGGUCAGACGCGAAUUACGUGGGUGGGCAGACGACUCGCCCGA
modifications: 2'-NH2 pyrimidines
B19: 23F (ssRNA)
RNA: GGGAGGACGAUGCGGCCCUACCACUUUUUCCCUCUACUGUUAUCCUGUCCCCCAGACGACUCGCCCGA
modifications: 2'-F pyrimidines
B20: 10N (ssRNA)
RNA: GGGAGGACGAUGCGGUAGCUGCUGUCAUGCAAGACACUAGAAGAUUAAGAUGGGGCAGACGACUCGCCCGA
modifications: 2'-NH2 pyrimidines
B21: 36N (ssRNA)
RNA: GGGAGGACGAUGCGGGAAGGGAACAGGAUAAGACAAGUCGAACAAAGCCGAGGUGCAGACGACUCGCCCGA
modifications: 2'-NH2 pyrimidines
B22: 47N (ssRNA)
RNA: GGGAGGACGAUGCGGGAAGGGUAGGAAGGUCAAGAGGAAACAGCGCUUCGGGGUGCAGACGACUCGCCCGA
modifications: 2'-NH2 pyrimidines
B23: 24F (ssRNA)
RNA: GGGAGGACGAUGCGGUGGUCUCCCUAGAUCUACAGCACUUCCAUCGCAUUGGGCCAGACGACUCGCCCGA
modifications: 2'-F pyrimidines
B24: 8F (ssRNA)
RNA: GGGAGGACGAUGCGGUUUCGAAUAGGGCCAUUUCUCACUAGCUAUCCUACCCUGCCCAGACGACUCGCCCGA
modifications: 2'-F pyrimidines
B25: 53F (ssRNA)
RNA: GGGAGGACGAUGCGGAUCAAAAGCACUCAUUCCCGUGCUCGCUUCAUUGGUCCCCCAGACGACUCGCCCGA
modifications: 2'-F pyrimidines
B26: 60F (ssRNA)
RNA: GGGAGGACGAUGCGGUGACAUGGAAUUUUCUACGGGCCCGAUCCUGCCAGCCGUGUGCAGACGACUCGCCCGA
modifications: 2'-F pyrimidines
B27: 9F (ssRNA)
RNA: GGGAGGACGAUGCGGAUAAUGGCUAGAACUAGCUCGCAUCUUGGUGUCCGGUGCCCAGACGACUCGCCCGA
modifications: 2'-F pyrimidines
B28: 22N (ssRNA)
RNA: GGGAGGACGAUGCGGAUGGAGCUGAAAUCAGACGACUCGCCCGA
modifications: 2'-NH2 pyrimidines
B29: 7F (ssRNA)
RNA: GGGAGGACGAUGCGGCGGGUACUCUUCGCCAGCUCCUCCAAGCGCGACCUGUGCCCAGACGACUCGCCCGA
modifications: 2'-F pyrimidines
B30: 69N (ssRNA)
RNA: GGGAGGACGAUGCGGGUAGGGAGUAGGACAGACAUAACAGUGCAACCAUCGUGGCCAGACGACUCGCCCGA
modifications: 2'-NH2 pyrimidines
B31: 16N (ssRNA)
RNA: GGGAGGACGAUGCGGAAGUUCUAACAAGUUAGUGGAAGGUUCCACUUGAAUGUACAGACGACUCGCCCGA
modifications: 2'-NH2 pyrimidines
B32: 34N (ssRNA)
RNA: GGGAGGACGAUGCGGGCGGGAAGAGCUAAUGGAAGUGGAAUCAGUCACAGUGCGGCAGACGACUCGCCCGA
modifications: 2'-NH2 pyrimidines
B33: 55F (ssRNA)
RNA: GGGAGGACGAUGCGGUCCGUCAUAACGGCCAUAAACUGCGAAUACUCCCUGGCCCAGACGACUCGCCCGA
modifications: 2'-F pyrimidines
B34: 24N (ssRNA)
RNA: GGGAGGACGAUGCGGGUGGGAAGAUGAGCCGGUCGGCAGUAAUGUGACACUGCGGCAGACGACUCGCCCGA
modifications: 2'-NH2 pyrimidines
B35: 60N (ssRNA)
RNA: GGGAGGACGAUGCGGCCCCUUAGCUCAGUGGUUAGAGCAGACGACUCGCCCGA
modifications: 2'-NH2 pyrimidines
B36: 27F (ssRNA)
RNA: GGGAGGACGAUGCGGCAGUCUGGAUCUCUAUUGGAAUUUAGUCCUCAACUGUGCCCCAGACGACUCGCCCGA
modifications: 2'-F pyrimidines
B37: 35N (ssRNA)
RNA: GGGAGGACGAUGCGGGCUUAGGGAAAUGGUUCUGAGGUGGUCAGACGACUCGCCCGA
modifications: 2'-NH2 pyrimidines
B38: 48N (ssRNA)
RNA: GGGAGGACGAUGCGGGGCAAAGGAAGUUGGAAUCGGGACUAAGUAGUGUGUGGCCAGACGACUCGCCCGA
modifications: 2'-NH2 pyrimidines
B39: 42F (ssRNA)
RNA: GGGAGGACGAUGCGGCGACACAAUAGCCUUUGAUCCCAUGAUGGCUCGCCGUGCCCAGACGACUCGCCCGA
modifications: 2'-F pyrimidines
B40: 11N (ssRNA)
RNA: GGGAGGACGAUGCGGGGGCCGGAUUUGAACCGACGACUUCGGGUUAUGAGCCCGACGUCAGACGACUCGCCCGA
modifications: 2'-NH2 pyrimidines
B41: 54N (ssRNA)
RNA: GGGAGGACGAUGCGGAGAACCAACAGAGCCCCCUGGUGGUGGGGGAAGGAUUCUCAGACGACUCGCCCGA
modifications: 2'-NH2 pyrimidines

target: T1, KGF (hKGF); test: filter; DPBS, 37 C; settings: tags: Upstate Biotechnology; label: 32P

**Q.** For B1, which Kd is on record?
**A.** Its Kd is 2.75 nM.

**Q.** With B2 as the binder, how does the Kd read?
**A.** Its Kd is 1.44 nM.

**Q.** How did the Kd turn out when B3 was run?
**A.** Its Kd is 1 nM.

**Q.** For B4, which Kd is on record?
**A.** Its Kd is 3.24 nM.

**Q.** B5 was tested. Which Kd did it give?
**A.** Its Kd is 2.52 nM.

**Q.** With B6 as the binder, how does the Kd read?
**A.** Its Kd is 4.7 nM.

**Q.** B7 was tested. Which Kd did it give?
**A.** Its Kd is 2.54 nM.

**Q.** With B8 as the binder, how does the Kd read?
**A.** The Kd was 4.47 nM.

**Q.** How did the Kd turn out when B9 was run?
**A.** The Kd was 3.52 nM.

**Q.** Which Kd does the source give for B10 here?
**A.** The Kd was 1.23 nM.

**Q.** Which Kd does the source give for B11 here?
**A.** Its Kd is 0.87 nM.

**Q.** With B12 as the binder, how does the Kd read?
**A.** The Kd was 1.77 nM.

**Q.** Which Kd does the source give for B13 here?
**A.** The Kd was 1.2 nM.

**Q.** How did the Kd turn out when B14 was run?
**A.** Its Kd is 2.53 nM.

**Q.** Which Kd does the source give for B15 here?
**A.** Its Kd is 1.1 nM.

**Q.** How did the Kd turn out when B16 was run?
**A.** Its Kd is 7.67 nM.

**Q.** B17 was tested. Which Kd did it give?
**A.** The Kd was 3.74 nM.

**Q.** With B18 as the binder, how does the Kd read?
**A.** The Kd was 1.25 nM.

**Q.** For B19, which Kd is on record?
**A.** Its Kd is 2.52 nM.

**Q.** Which Kd does the source give for B20 here?
**A.** Its Kd is 1.1 nM.

**Q.** For B21, which Kd is on record?
**A.** The Kd was 8.27 nM.

**Q.** Which Kd does the source give for B22 here?
**A.** Its Kd is 1.76 nM.

**Q.** With B23 as the binder, how does the Kd read?
**A.** The Kd was 2.02 nM.

**Q.** With B24 as the binder, how does the Kd read?
**A.** The Kd was 2.63 nM.

**Q.** How did the Kd turn out when B25 was run?
**A.** The Kd was 0.7 nM.

**Q.** Which Kd does the source give for B26 here?
**A.** The Kd was 2.1 nM.

**Q.** For B27, which Kd is on record?
**A.** Its Kd is 0.83 nM.

**Q.** How did the Kd turn out when B28 was run?
**A.** The Kd was 5.7 nM.

**Q.** For B29, which Kd is on record?
**A.** Its Kd is 3.69 nM.

**Q.** With B30 as the binder, how does the Kd read?
**A.** Its Kd is 15.2 nM.

**Q.** For B31, which Kd is on record?
**A.** The Kd was 1.4 nM.

**Q.** Which Kd does the source give for B32 here?
**A.** Its Kd is 0.8 nM.

**Q.** With B33 as the binder, how does the Kd read?
**A.** The Kd was 2.52 nM.

**Q.** B34 was tested. Which Kd did it give?
**A.** Its Kd is 1.16 nM.

**Q.** Which Kd does the source give for B35 here?
**A.** The Kd was 7.38 nM.

**Q.** With B36 as the binder, how does the Kd read?
**A.** The Kd was 1.52 nM.

**Q.** Which Kd does the source give for B37 here?
**A.** Its Kd is 2.32 nM.

**Q.** Which Kd does the source give for B38 here?
**A.** The Kd was 1.34 nM.

**Q.** B39 was tested. Which Kd did it give?
**A.** Its Kd is 0.9 nM.

**Q.** How did the Kd turn out when B40 was run?
**A.** Its Kd is 1.28 nM.

same assay, conditions: tags: Upstate Biotechnology; label: 32P; dumbbell (predicted)

**Q.** How did the Kd turn out when B41 was run?
**A.** Its Kd is 5.35 nM.
